# Assay results published in paper PMC10470539, “Characterization of a novel aromatic substrate-processing microcompartment in Actinobacteria” (mBio, 2023).
# T1: ARO AldDh (2-aminomuconic-6-semialdehyde dehydrogenase homolog) (Micromonospora rosaria, UniProt A0A136PUC7)
# T1 construct: gene AWW66_10300; E. coli BL21(DE3), codon-optimized, untagged (pLD69); ammonium sulfate and HIC enriched; primers imply N-term MTGLWSPTL, C-term VDLS
# T1 sequence (A0A136PUC7 1-502): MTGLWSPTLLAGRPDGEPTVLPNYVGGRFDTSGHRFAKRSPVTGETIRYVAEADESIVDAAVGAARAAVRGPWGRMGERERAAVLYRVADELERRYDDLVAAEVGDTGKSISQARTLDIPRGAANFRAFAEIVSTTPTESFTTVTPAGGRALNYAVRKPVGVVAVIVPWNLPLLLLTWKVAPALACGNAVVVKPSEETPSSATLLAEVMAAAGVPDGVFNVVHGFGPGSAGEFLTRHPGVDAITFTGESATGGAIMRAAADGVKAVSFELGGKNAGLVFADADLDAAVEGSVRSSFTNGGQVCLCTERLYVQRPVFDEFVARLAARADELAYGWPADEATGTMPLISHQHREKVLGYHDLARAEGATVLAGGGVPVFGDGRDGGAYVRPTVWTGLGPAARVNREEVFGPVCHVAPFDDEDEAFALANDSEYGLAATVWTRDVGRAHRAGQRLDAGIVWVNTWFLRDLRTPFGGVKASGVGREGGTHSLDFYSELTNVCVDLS
# What was measured:
# [1] = target: T1, ARO AldDh (2-aminomuconic-6-semialdehyde dehydrogenase homolog); experiment: coupled assay, absorption spectra, product 2-aminomuconate at […] nm; format: biochemical; details: 2-AMS generated in situ from 0.5 µM 2-AP by ARO dioxygenase; 20 µM NAD+, 100 mM potassium phosphate pH 7.5
# [2] = target: ARO AldDh (ARO 2-aminomuconic-6-semialdehyde dehydrogenase homolog) from Micromonospora rosaria (Micromonospora rosaria); experiment: SEC; purified ARO AldDh on analytical Superdex 200 10/300 GL in Buffer E (10 mM Tris-HCl pH 8.0, 0.5 M NaCl, 0.2 mM NAD+, 1 mM DTT, 5% glycerol); oligomer of the enzyme with itself
# [3] = target: ARO dioxygenase beta subunit (2-aminophenol-1,6-dioxygenase beta subunit) from Micromonospora rosaria, His-tagged (Micromonospora rosaria); experiment: crystal structure; ARO dioxygenase, sitting drop vapor diffusion at room temperature; 0.1 M Tris pH 8.0, 0.5 M ammonium, 28% PEG 8000; 1.75 Å, P1 cell
# [4] = substrate: Oc1ccccc1O; experiment: purified protein; format: biochemical, Micromonospora rosaria; details: 10 mM sodium phosphate pH 8.0, room temperature, 27 µg enzyme in 1 mL
# [5] = substrate: Nc1ccccc1O; experiment: purified protein; format: biochemical, Micromonospora rosaria; details: 10 mM sodium phosphate pH 8.0, room temperature, 27 µg enzyme in 1 mL
# [6] = substrate: Nc1ccc(Cl)cc1O; experiment: purified protein; format: biochemical, Micromonospora rosaria; details: 10 mM sodium phosphate pH 8.0, room temperature, 27 µg enzyme in 1 mL
molecule,measurement,setting,value
N/C(=C\C=C\C=O)C(=O)O [2-aminomuconate 6-semialdeyde],"coupled assay, absorption spectra, product 2-aminomuconate at 326 nm",[1],ability to convert 2-aminomuconate 6-semialdeyde (2-AMS) to 2-aminomuconate in vitro
ARO AldDh (ARO 2-aminomuconic-6-semialdehyde dehydrogenase homolog) from Micromonospora rosaria (enzyme),stoichiometry N,[2],3
"ARO dioxygenase beta subunit (2-aminophenol-1,6-dioxygenase beta subunit) from Micromonospora rosaria, His-tagged (natural protein)",stoichiometry N,[3],2
"ARO dioxygenase (2-aminophenol-1,6-dioxygenase; ARO AmnA and AmnB) (Micromonospora rosaria) (protein, E. coli BL21(DE3) co-expression (codon-optimized; pLD54 alpha, pLD59 beta); beta with C-terminal 6xHis via Gly/Ser linker, tag kept; alpha untagged; 140 kDa dimer of heterodimers; modelled alpha D3-H278, beta T30-G322; iron in beta subunit; primers imply alpha N-term MADRTG, beta N-term MSRVFR; with 2-aminophenol 1,6-dioxygenase alpha subunit) MSRVFRVPLAPTRGGATTAPRTPAPAPAPTRPGIVAGCLSPHPPHLIYGENPPQNEPRSTGGWETLRWAYERLRARIRDVHKPDVLIVHAPHWITMVGHHVNCVPNPRGLSVEPIFPHLFRYRYDFRTDVELGEAIAEEASGLGLVTRTLRDPRVRVDYATIGALHLANPAWDIPVVSLSANNNPYFYSDASLTEMEVLGEATRLAVEATGRRAVLLASNSLSHLHWHEEPELPEDMEREHPYNNHQYRWDMKLLEAIRRGPTAPLRDLIPEHIEATASETKAGSLTWMLAAMGWPKVAGDVLGYGTIIGTGNAIVEWLPEGSHH",Km,[4],14 µM
same,Km,[5],70 µM
same,Km,[6],29 µM
